Assay results published in US20240209076A1 (KODIAK SCIENCES, published 2024).

B1: anti-IL-6 antibody, heavy chain I51F, G66D / light chain M32L, M50D, N52S, M88Q (antibody, human IgG1, V domains shown)
VH: EVQLVESGGGLVQPGGSLRLSCAASGFTFSPFAMSWVRQAPGKGLEWVAKFSPGGSWTYYSDTVTDRFTFSLDTSKSTAYLQMNSLRAEDTAVYYCARQLWGYYALDIWGQGTLVTVSS
VL: DIQLTQSPSSLSASVGDRVTITCSASISVSYLYWYQQKPGKAPKLLIYDDSSLASGVPSRFSGSGSGTDFTLTISSLQPEDFATYYCQQWSGYPYTFGQGTKVEIK
notes: Human IgG1
B2: anti-IL-6 antibody, heavy chain I51L, G66D / light chain M32L, M50D, N52S, M88Q (antibody, human IgG1, V domains shown)
VH: EVQLVESGGGLVQPGGSLRLSCAASGFTFSPFAMSWVRQAPGKGLEWVAKLSPGGSWTYYSDTVTDRFTFSLDTSKSTAYLQMNSLRAEDTAVYYCARQLWGYYALDIWGQGTLVTVSS
VL: DIQLTQSPSSLSASVGDRVTITCSASISVSYLYWYQQKPGKAPKLLIYDDSSLASGVPSRFSGSGSGTDFTLTISSLQPEDFATYYCQQWSGYPYTFGQGTKVEIK
notes: Human IgG1
B3: anti-IL-6 antibody, heavy chain S35D, G66D / light chain M32L, M50D, N52S, M88Q (antibody, human IgG1, V domains shown)
VH: EVQLVESGGGLVQPGGSLRLSCAASGFTFSPFAMDWVRQAPGKGLEWVAKISPGGSWTYYSDTVTDRFTFSLDTSKSTAYLQMNSLRAEDTAVYYCARQLWGYYALDIWGQGTLVTVSS
VL: DIQLTQSPSSLSASVGDRVTITCSASISVSYLYWYQQKPGKAPKLLIYDDSSLASGVPSRFSGSGSGTDFTLTISSLQPEDFATYYCQQWSGYPYTFGQGTKVEIK
notes: Human IgG1
B4: anti-IL-6 antibody, heavy chain S35E, G66D / light chain M32L, M50D, N52S, M88Q (antibody, human IgG1, V domains shown)
VH: EVQLVESGGGLVQPGGSLRLSCAASGFTFSPFAMEWVRQAPGKGLEWVAKISPGGSWTYYSDTVTDRFTFSLDTSKSTAYLQMNSLRAEDTAVYYCARQLWGYYALDIWGQGTLVTVSS
VL: DIQLTQSPSSLSASVGDRVTITCSASISVSYLYWYQQKPGKAPKLLIYDDSSLASGVPSRFSGSGSGTDFTLTISSLQPEDFATYYCQQWSGYPYTFGQGTKVEIK
notes: Human IgG1
B5: anti-IL-6 antibody, heavy chain S35A, G66D / light chain M32L, M50D, N52S, M88Q (antibody, human IgG1, V domains shown)
VH: EVQLVESGGGLVQPGGSLRLSCAASGFTFSPFAMAWVRQAPGKGLEWVAKISPGGSWTYYSDTVTDRFTFSLDTSKSTAYLQMNSLRAEDTAVYYCARQLWGYYALDIWGQGTLVTVSS
VL: DIQLTQSPSSLSASVGDRVTITCSASISVSYLYWYQQKPGKAPKLLIYDDSSLASGVPSRFSGSGSGTDFTLTISSLQPEDFATYYCQQWSGYPYTFGQGTKVEIK
notes: Human IgG1
B6: anti-IL-6 antibody, heavy chain I51R, G66D / light chain M32L, M50D, N52S, M88Q (antibody, human IgG1, V domains shown)
VH: EVQLVESGGGLVQPGGSLRLSCAASGFTFSPFAMSWVRQAPGKGLEWVAKRSPGGSWTYYSDTVTDRFTFSLDTSKSTAYLQMNSLRAEDTAVYYCARQLWGYYALDIWGQGTLVTVSS
VL: DIQLTQSPSSLSASVGDRVTITCSASISVSYLYWYQQKPGKAPKLLIYDDSSLASGVPSRFSGSGSGTDFTLTISSLQPEDFATYYCQQWSGYPYTFGQGTKVEIK
notes: Human IgG1
B7: anti-IL-6 antibody, heavy chain S35I, G66D / light chain M32L, M50D, N52S, M88Q (antibody, human IgG1, V domains shown)
VH: EVQLVESGGGLVQPGGSLRLSCAASGFTFSPFAMIWVRQAPGKGLEWVAKISPGGSWTYYSDTVTDRFTFSLDTSKSTAYLQMNSLRAEDTAVYYCARQLWGYYALDIWGQGTLVTVSS
VL: DIQLTQSPSSLSASVGDRVTITCSASISVSYLYWYQQKPGKAPKLLIYDDSSLASGVPSRFSGSGSGTDFTLTISSLQPEDFATYYCQQWSGYPYTFGQGTKVEIK
notes: Human IgG1
B8: anti-IL-6 antibody, heavy chain S35G, G66D / light chain M32L, M50D, N52S, M88Q (antibody, human IgG1, V domains shown)
VH: EVQLVESGGGLVQPGGSLRLSCAASGFTFSPFAMGWVRQAPGKGLEWVAKISPGGSWTYYSDTVTDRFTFSLDTSKSTAYLQMNSLRAEDTAVYYCARQLWGYYALDIWGQGTLVTVSS
VL: DIQLTQSPSSLSASVGDRVTITCSASISVSYLYWYQQKPGKAPKLLIYDDSSLASGVPSRFSGSGSGTDFTLTISSLQPEDFATYYCQQWSGYPYTFGQGTKVEIK
notes: Human IgG1
B9: anti-IL-6 antibody, heavy chain I51S, G66D / light chain M32L, M50D, N52S, M88Q (antibody, human IgG1, V domains shown)
VH: EVQLVESGGGLVQPGGSLRLSCAASGFTFSPFAMSWVRQAPGKGLEWVAKSSPGGSWTYYSDTVTDRFTFSLDTSKSTAYLQMNSLRAEDTAVYYCARQLWGYYALDIWGQGTLVTVSS
VL: DIQLTQSPSSLSASVGDRVTITCSASISVSYLYWYQQKPGKAPKLLIYDDSSLASGVPSRFSGSGSGTDFTLTISSLQPEDFATYYCQQWSGYPYTFGQGTKVEIK
notes: Human IgG1
B10: anti-IL-6 antibody, heavy chain I51G, G66D / light chain M32L, M50D, N52S, M88Q (antibody, human IgG1, V domains shown)
VH: EVQLVESGGGLVQPGGSLRLSCAASGFTFSPFAMSWVRQAPGKGLEWVAKGSPGGSWTYYSDTVTDRFTFSLDTSKSTAYLQMNSLRAEDTAVYYCARQLWGYYALDIWGQGTLVTVSS
VL: DIQLTQSPSSLSASVGDRVTITCSASISVSYLYWYQQKPGKAPKLLIYDDSSLASGVPSRFSGSGSGTDFTLTISSLQPEDFATYYCQQWSGYPYTFGQGTKVEIK
notes: Human IgG1
B11: anti-IL-6 antibody, heavy chain I51W, G66D / light chain M32L, M50D, N52S, M88Q (antibody, human IgG1, V domains shown)
VH: EVQLVESGGGLVQPGGSLRLSCAASGFTFSPFAMSWVRQAPGKGLEWVAKWSPGGSWTYYSDTVTDRFTFSLDTSKSTAYLQMNSLRAEDTAVYYCARQLWGYYALDIWGQGTLVTVSS
VL: DIQLTQSPSSLSASVGDRVTITCSASISVSYLYWYQQKPGKAPKLLIYDDSSLASGVPSRFSGSGSGTDFTLTISSLQPEDFATYYCQQWSGYPYTFGQGTKVEIK
notes: Human IgG1
B12: anti-IL-6 antibody, heavy chain I51K, G66D / light chain M32L, M50D, N52S, M88Q (antibody, human IgG1, V domains shown)
VH: EVQLVESGGGLVQPGGSLRLSCAASGFTFSPFAMSWVRQAPGKGLEWVAKKSPGGSWTYYSDTVTDRFTFSLDTSKSTAYLQMNSLRAEDTAVYYCARQLWGYYALDIWGQGTLVTVSS
VL: DIQLTQSPSSLSASVGDRVTITCSASISVSYLYWYQQKPGKAPKLLIYDDSSLASGVPSRFSGSGSGTDFTLTISSLQPEDFATYYCQQWSGYPYTFGQGTKVEIK
notes: Human IgG1
B13: anti-IL-6 antibody, heavy chain S35F, G66D / light chain M32L, M50D, N52S, M88Q (antibody, human IgG1, V domains shown)
VH: EVQLVESGGGLVQPGGSLRLSCAASGFTFSPFAMFWVRQAPGKGLEWVAKISPGGSWTYYSDTVTDRFTFSLDTSKSTAYLQMNSLRAEDTAVYYCARQLWGYYALDIWGQGTLVTVSS
VL: DIQLTQSPSSLSASVGDRVTITCSASISVSYLYWYQQKPGKAPKLLIYDDSSLASGVPSRFSGSGSGTDFTLTISSLQPEDFATYYCQQWSGYPYTFGQGTKVEIK
notes: Human IgG1
B14: anti-IL-6 antibody, heavy chain I51V, G66D / light chain M32L, M50D, N52S, M88Q (antibody, human IgG1, V domains shown)
VH: EVQLVESGGGLVQPGGSLRLSCAASGFTFSPFAMSWVRQAPGKGLEWVAKVSPGGSWTYYSDTVTDRFTFSLDTSKSTAYLQMNSLRAEDTAVYYCARQLWGYYALDIWGQGTLVTVSS
VL: DIQLTQSPSSLSASVGDRVTITCSASISVSYLYWYQQKPGKAPKLLIYDDSSLASGVPSRFSGSGSGTDFTLTISSLQPEDFATYYCQQWSGYPYTFGQGTKVEIK
notes: Human IgG1
B15: anti-IL-6 antibody, heavy chain I51T, G66D / light chain M32L, M50D, N52S, M88Q (antibody, human IgG1, V domains shown)
VH: EVQLVESGGGLVQPGGSLRLSCAASGFTFSPFAMSWVRQAPGKGLEWVAKTSPGGSWTYYSDTVTDRFTFSLDTSKSTAYLQMNSLRAEDTAVYYCARQLWGYYALDIWGQGTLVTVSS
VL: DIQLTQSPSSLSASVGDRVTITCSASISVSYLYWYQQKPGKAPKLLIYDDSSLASGVPSRFSGSGSGTDFTLTISSLQPEDFATYYCQQWSGYPYTFGQGTKVEIK
notes: Human IgG1
B16: anti-IL-6 antibody, heavy chain I51Y, G66D / light chain M32L, M50D, N52S, M88Q (antibody, human IgG1, V domains shown)
VH: EVQLVESGGGLVQPGGSLRLSCAASGFTFSPFAMSWVRQAPGKGLEWVAKYSPGGSWTYYSDTVTDRFTFSLDTSKSTAYLQMNSLRAEDTAVYYCARQLWGYYALDIWGQGTLVTVSS
VL: DIQLTQSPSSLSASVGDRVTITCSASISVSYLYWYQQKPGKAPKLLIYDDSSLASGVPSRFSGSGSGTDFTLTISSLQPEDFATYYCQQWSGYPYTFGQGTKVEIK
notes: Human IgG1
B17: anti-IL-6 antibody, heavy chain I51H, G66D / light chain M32L, M50D, N52S, M88Q (antibody, human IgG1, V domains shown)
VH: EVQLVESGGGLVQPGGSLRLSCAASGFTFSPFAMSWVRQAPGKGLEWVAKHSPGGSWTYYSDTVTDRFTFSLDTSKSTAYLQMNSLRAEDTAVYYCARQLWGYYALDIWGQGTLVTVSS
VL: DIQLTQSPSSLSASVGDRVTITCSASISVSYLYWYQQKPGKAPKLLIYDDSSLASGVPSRFSGSGSGTDFTLTISSLQPEDFATYYCQQWSGYPYTFGQGTKVEIK
notes: Human IgG1
B18: anti-IL-6 antibody, heavy chain I51Q, G66D / light chain M32L, M50D, N52S, M88Q (antibody, human IgG1, V domains shown)
VH: EVQLVESGGGLVQPGGSLRLSCAASGFTFSPFAMSWVRQAPGKGLEWVAKQSPGGSWTYYSDTVTDRFTFSLDTSKSTAYLQMNSLRAEDTAVYYCARQLWGYYALDIWGQGTLVTVSS
VL: DIQLTQSPSSLSASVGDRVTITCSASISVSYLYWYQQKPGKAPKLLIYDDSSLASGVPSRFSGSGSGTDFTLTISSLQPEDFATYYCQQWSGYPYTFGQGTKVEIK
notes: Human IgG1

Biological target: human IL-6 (human, UniProt P05231 30-212)
Sequence (P05231 30-212 limits assumed): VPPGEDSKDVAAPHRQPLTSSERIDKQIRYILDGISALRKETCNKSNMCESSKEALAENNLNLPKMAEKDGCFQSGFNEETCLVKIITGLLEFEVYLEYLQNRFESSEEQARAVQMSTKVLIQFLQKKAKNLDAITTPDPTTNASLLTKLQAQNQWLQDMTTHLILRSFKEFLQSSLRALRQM
Assay: SPR (Biacore), supernatant antibody on Protein A chip, IL-6 flowed, 37 C
Description: Antibodies were captured on a Protein A chip (GE) by injecting 1:20 cell supernatant dilutions at 10 μL/min for 60 seconds. […] The sensor chip was regenerated by a 60 seconds injection of 10 mM Glycine pH 1.7 at the flow rate of 50 μL/min. […] For this setup, 1 μg/mL of purified antibody was injected over a Protein A chip at 10 μL/min for 25 seconds. […] The sensor chip was regenerated by a 60 seconds injection of 10 mM Glycine pH 1.7 at flow rate of 50 μL/min. Data analysis for supernatant and purified samples were performed using BIAevaluation software (GE). All sensorgrams were double reference subtracted and fit using a 1:1 Langmuir binding model.

| Kd [pM] | koff [s⁻¹] | kon [M⁻¹ s⁻¹] | Binder |
| --- | --- | --- | --- |
| 4450 | 0.00611 | 1.37e+06 | B1 |
| 980 | 0.00161 | 1.64e+06 | B2 |
| 753 | 0.00177 | 2.35e+06 | B3 |
| 867 | 0.00189 | 2.18e+06 | B4 |
| 657 | 0.00126 | 1.93e+06 | B5 |
| 35.7 | 5.8e-05 | 1.63e+06 | B6 |
| 1620 | 0.00147 | 904000 | B7 |
| 609 | 0.000781 | 1.28e+06 | B8 |
| 217 | 0.000401 | 1.85e+06 | B9 |
| 652 | 0.000912 | 1.4e+06 | B10 |
| 4840 | 0.00383 | 791000 | B11 |
| 349 | 0.000601 | 1.72e+06 | B12 |
| 3170 | 0.00484 | 1.53e+06 | B13 |
| 1110 | 0.00195 | 1.76e+06 | B14 |
| 233 | 0.000478 | 2.05e+06 | B15 |
| 4040 | 0.0247 | 6.1e+06 | B16 |
| 500 | 0.00104 | 2.07e+06 | B17 |
| 575 | 0.00113 | 1.96e+06 | B18 |
